Values of other authors in paper PMC6255930.

Target: hemopexin (Homo sapiens) (UniProt P02790)
Sequence of UniProt P02790 (P02790 24-462): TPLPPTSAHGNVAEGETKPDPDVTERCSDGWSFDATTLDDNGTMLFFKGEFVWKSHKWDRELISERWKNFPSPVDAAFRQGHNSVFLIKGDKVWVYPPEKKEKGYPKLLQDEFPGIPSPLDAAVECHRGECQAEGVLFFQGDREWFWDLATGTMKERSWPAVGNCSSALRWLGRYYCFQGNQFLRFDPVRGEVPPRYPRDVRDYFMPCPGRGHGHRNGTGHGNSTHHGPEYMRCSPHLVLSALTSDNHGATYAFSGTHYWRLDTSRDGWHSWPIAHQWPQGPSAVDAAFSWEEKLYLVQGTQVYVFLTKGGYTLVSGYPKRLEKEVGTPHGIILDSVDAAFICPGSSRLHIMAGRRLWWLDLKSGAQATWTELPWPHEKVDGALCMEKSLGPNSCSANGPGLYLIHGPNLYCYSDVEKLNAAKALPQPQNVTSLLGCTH

LRP1 (from UniProt Q07954)
Kd: 4 nM
